According to article PMC6386767, “Characterization of recombinant fructose-1,6-bisphosphatase gene mutations: evidence of inhibition/activation of FBPase protein by gene mutation” (Bioscience Reports, 2019):
Where a chain is given by its changes, count along the chain named. Numbers in names are those of the source.

Tests used:
Assay type in all cases: binding
[1] = target: T1, pig kidney FBPase K112A (Sus scrofa, UniProt P00636, K113A); assay: Differential scanning fluorimetry, K112A mutant; details: no ligand
T1 construct: His6 (C); made in house; host or cells: Escherichia coli BL21 (DE3)
T1 sequence (P00636 1-338 K113A): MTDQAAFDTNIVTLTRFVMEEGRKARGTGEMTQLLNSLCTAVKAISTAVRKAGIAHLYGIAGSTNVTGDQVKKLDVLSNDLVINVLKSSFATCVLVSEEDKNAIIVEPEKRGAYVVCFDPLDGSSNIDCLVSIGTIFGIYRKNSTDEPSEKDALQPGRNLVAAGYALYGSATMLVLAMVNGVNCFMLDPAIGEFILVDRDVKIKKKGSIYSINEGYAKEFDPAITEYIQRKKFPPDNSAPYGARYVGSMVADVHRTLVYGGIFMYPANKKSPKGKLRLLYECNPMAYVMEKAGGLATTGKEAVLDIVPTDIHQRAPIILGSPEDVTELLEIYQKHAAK
Protocol: (§1) Differential scanning fluorimetry (DSF) assays were designed and implemented to run on WT and each mutant for the purpose of determining relative stabilities by melting point, and to detect structural changes in the enzymes upon ligand binding. Thermal shift assays were performed with a Light Cycler 96 System Real-Time PCR machine (Roche) using Sypro-Orange dye (Invitrogen) and thermal ramping (0.25°C per min between 20 and 85°C). […] Data were processed using the Boltzmann equation to generate sigmoidal denaturation curves, and average Tm/ΔTm values were calculated as previously described using GraphPad Prism software package.

[2] = target: T2, pig kidney FBPase Y113A (Sus scrofa, UniProt P00636, Y114A); assay: Differential scanning fluorimetry, Y113A mutant; details: no ligand
T2 construct: His6 (C); made in house; host or cells: Escherichia coli BL21 (DE3)
T2 sequence (P00636 1-338 Y114A): T1 sequence (P00636 1-338 K113A) with A113K, Y114A
Protocol: as §1

[3] = target: T3, pig kidney FBPase L73A (Sus scrofa, UniProt P00636, L74A); assay: Differential scanning fluorimetry, L73A mutant; details: enzyme L73A 5 µM, no ligand
T3 construct: His6 (C); made in house; host or cells: Escherichia coli BL21 (DE3)
T3 sequence (P00636 1-338 L74A): T1 sequence (P00636 1-338 K113A) with L74A, A113K
Protocol: as §1

[4] = target: T4, pig kidney FBPase WT (Sus scrofa, UniProt P00636); assay: Differential scanning fluorimetry, WT enzyme; details: enzyme WT 5 µM, no ligand
T4 construct: His6 (C); made in house; host or cells: Escherichia coli BL21 (DE3)
T4 sequence (P00636 1-338): T1 sequence (P00636 1-338 K113A) with A113K
Protocol: as §1

[5] = target: T5, pig kidney FBPase M248D (Sus scrofa, UniProt P00636, M249D); assay: Differential scanning fluorimetry, M248D mutant; details: enzyme M248D 5 µM, no ligand
T5 construct: His6 (C); made in house; host or cells: Escherichia coli BL21 (DE3)
T5 sequence (P00636 1-338 M249D): T1 sequence (P00636 1-338 K113A) with A113K, M249D
Protocol: as §1

[6] = target: T6, pig kidney FBPase Y164A (Sus scrofa, UniProt P00636, Y165A); assay: Differential scanning fluorimetry, Y164A mutant; details: enzyme Y164A 5 µM, no ligand
T6 construct: His6 (C); made in house; host or cells: Escherichia coli BL21 (DE3)
T6 sequence (P00636 1-338 Y165A): T1 sequence (P00636 1-338 K113A) with A113K, Y165A
Protocol: as §1

[7] = target: T7, pig kidney FBPase M177A (Sus scrofa, UniProt P00636, M178A); assay: Differential scanning fluorimetry, M177A mutant; details: enzyme M177A 5 µM, no ligand
T7 construct: His6 (C); made in house; host or cells: Escherichia coli BL21 (DE3)
T7 sequence (P00636 1-338 M178A): T1 sequence (P00636 1-338 K113A) with A113K, M178A
Protocol: as §1

[8] = target: T8, pig kidney FBPase L56A (Sus scrofa, UniProt P00636, L57A); assay: Differential scanning fluorimetry, L56A mutant; details: enzyme L56A 5 µM, no ligand
T8 construct: His6 (C); made in house; host or cells: Escherichia coli BL21 (DE3)
T8 sequence (P00636 1-338 L57A): T1 sequence (P00636 1-338 K113A) with L57A, A113K
Protocol: as §1

B1: K112A: pig kidney FBPase mutant, lysine to alanine, AMP-binding site (protein, UniProt P00636 2-338, looked up, variant K112A)
Fructose-1,6-bisphosphatase 1: TDQAAFDTNIVTLTRFVMEEGRKARGTGEMTQLLNSLCTAVKAISTAVRKAGIAHLYGIAGSTNVTGDQVKKLDVLSNDLVINVLKSSFATCVLVSEEDKNAIIVEPEKRGAYVVCFDPLDGSSNIDCLVSIGTIFGIYRKNSTDEPSEKDALQPGRNLVAAGYALYGSATMLVLAMVNGVNCFMLDPAIGEFILVDRDVKIKKKGSIYSINEGYAKEFDPAITEYIQRKKFPPDNSAPYGARYVGSMVADVHRTLVYGGIFMYPANKKSPKGKLRLLYECNPMAYVMEKAGGLATTGKEAVLDIVPTDIHQRAPIILGSPEDVTELLEIYQKHAAK
melting point, No Ligand ([1]; enzyme K112A 5 µM): 51.0 (± 2.50) °C | decrease in melting temperature compared with WT ([1]; enzyme K112A): approximately 6 °

B2: Y113A: pig kidney FBPase mutant, tyrosine to alanine, AMP-binding site (protein, UniProt P00636 2-338, looked up, variant Y113A)
Fructose-1,6-bisphosphatase 1: B1 Fructose-1,6-bisphosphatase 1 with A112K, Y113A
melting point, No Ligand ([2]; enzyme Y113A 5 µM): 50.0 (± 2.25) °C | decrease in melting temperature compared with WT ([2]; enzyme Y113A): approximately 6 °

B3: L73A: pig kidney FBPase mutant Leu^73 to alanine, near PFE tetramer interface site (protein, UniProt P00636 2-338, looked up, variant L73A)
Fructose-1,6-bisphosphatase 1: B1 Fructose-1,6-bisphosphatase 1 with L73A, A112K
melting point, No Ligand [3]: 55.8 (± 2.50) °C

B4: WT: recombinant wild-type pig kidney FBPase enzyme (protein, UniProt P00636 2-338, looked up)
Fructose-1,6-bisphosphatase 1: B1 Fructose-1,6-bisphosphatase 1 with A112K
melting point, No Ligand [4]: 56.0 (± 2.75) °C

B5: M248D: pig kidney FBPase active site mutant Met^248 to aspartic acid (protein, UniProt P00636 2-338, looked up, variant M248D)
Fructose-1,6-bisphosphatase 1: B1 Fructose-1,6-bisphosphatase 1 with A112K, M248D
melting point, No Ligand [5]: 62.0 (± 1.25) °C

B6: Y164A: pig kidney FBPase mutant, tyrosine to alanine, interfacial (protein, UniProt P00636 2-338, looked up, variant Y164A)
Fructose-1,6-bisphosphatase 1: B1 Fructose-1,6-bisphosphatase 1 with A112K, Y164A
melting point, No Ligand [6]: 55.4 (± 2.25) °C

B7: M177A: pig kidney FBPase mutant, methionine to alanine, interfacial (protein, UniProt P00636 2-338, looked up, variant M177A)
Fructose-1,6-bisphosphatase 1: B1 Fructose-1,6-bisphosphatase 1 with A112K, M177A
melting point, No Ligand [7]: 54.2 (± 1.75) °C

B8: L56A: pig kidney FBPase mutant Leu^56 to alanine, near PFE tetramer interface site (protein, UniProt P00636 2-338, looked up, variant L56A)
Fructose-1,6-bisphosphatase 1: B1 Fructose-1,6-bisphosphatase 1 with L56A, A112K
melting point, No Ligand [8]: 56.0 (± 3.00) °C
